Our source for the fluorescence intensity and Kd values is patent publication US20240352102A1.

Values joined by “and” are separate entries in the source; they are usually repeats but may differ in a detail not shown here. Equal entries are not always repeated. Where two headings read alike, the source gives them in different places.

Assay [1] has as its target T1, Peptide_060.
T1 sequence (peptide): LKHQPGGGKVQIINK
Description: peptide microarray.

Assay [2] addresses T2, Peptide_061.
T2 sequence (peptide): PGGGKVQIINKKLDL
The assay can be described thus: peptide microarray.

In assay [3] the target is T1, Peptide_060. Description: peptide microarray. The source holds these as a separate data set.
Assay [4] has as its target biotinylated a/B tubulin dimers. Description: SPR, biotinylated tubulin dimers as probe on a streptavidin chip, tau in solution.
Assay [5] deals with T1, Peptide_060. The assay can be described thus: peptide microarray. The source holds these as a separate data set.
Assay [6] concerns the target T2, Peptide_061. Description: peptide microarray. The source holds these as a separate data set.
The target in assay [7] is T3, Peptide_051.
T3 sequence (peptide): RTPPKSPSSAKSRLQ
Description: peptide microarray.

Turning to T46 (antibody), the fluorescence intensity in assay [1] is 1650 and 844; in assay [2] it was 3020.

Consider tau1 (antibody), for which the fluorescence intensity in assay [1] is 3040 and 1780.

As to TNT2 (antibody), in assay [3], the fluorescence intensity is 771 and 1024.

For TNT1 (antibody), the fluorescence intensity in assay [3] is 925 and 797.

Take “Recombinant human tau isoform 1N4R (from UniProt P10636 1-412)”: the Kd in assay [4] was found to be 39.8 nM.

As for T14 (antibody), the values for the fluorescence intensity in assay [1] and in assay [5] were 1010 and 840, respectively.

Take ALZ50 (antibody): the values for the fluorescence intensity in assay [1] and in assay [3] were 2600 and 3070, respectively.

Take TOC1 (antibody): the fluorescence intensity in assay [1] is 1580 and 1790.

Consider MC1 (antibody), for which, in assay [1], the fluorescence intensity was 770 and 1100.

In the case of RD4 (antibody), the fluorescence intensity in assay [1] came to 722; in assay [2], 10700; in assay [5], 738; in assay [6], 21000; in assay [7] it was 163.
